CN114835814A

Molecular target: 人源PGII蛋白 (human pepsinogen II from human gastric mucosa, Lee Biosolutions, cat. 440-50) (human) (UniProt P20142)
Assay: indirect ELISA, human-derived PGII coated 2 μg/mL, culture supernatant diluted 50-fold

UniProt P20142, sequence (P20142 17-388): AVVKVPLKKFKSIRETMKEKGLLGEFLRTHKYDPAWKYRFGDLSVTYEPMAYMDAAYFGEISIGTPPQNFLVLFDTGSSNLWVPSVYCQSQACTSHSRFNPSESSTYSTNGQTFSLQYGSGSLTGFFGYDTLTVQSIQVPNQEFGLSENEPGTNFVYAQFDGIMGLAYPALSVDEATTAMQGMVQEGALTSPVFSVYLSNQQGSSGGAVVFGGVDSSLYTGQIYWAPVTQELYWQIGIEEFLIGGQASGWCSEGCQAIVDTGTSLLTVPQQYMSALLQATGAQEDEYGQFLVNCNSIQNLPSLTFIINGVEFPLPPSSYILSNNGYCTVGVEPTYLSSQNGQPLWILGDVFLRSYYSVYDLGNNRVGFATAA

Binder	OD450
鼠单克隆抗体3G10 (antibody, part only; not given: Light chain variable domain, V domains shown, part only) VH: EVQLQQSGAELVKPGASVKLSCTASGFNIKDSYIHWVTQRPDQGLEWIGMIDPTNDNIRYDPKFQGRATITADTSSNTAYLQLSSLTSEDTAVYFCARDGTSLDYWGQGTSLTVSS	1.72 OD450
鼠单克隆抗体1A7 (antibody, V domains shown) VH: EVKLEESGGGLVQPGGSMKLSCVASGFAFSNYWMNWVRQSPEKGLEWVAEIRLKSNNYATHYAESVKGRFTISRDDSKSSVDLQMNNLRAEDTGTYYCNPFFYDYGYWGQGTTLTVSS VL: QIVLTQSPAILSASPGEKVTISCSASSSVSYMYWYQQKPGSSPKPWIYRTSNLASGVPARFSGSGSGTSYSLTISSMEAEDAATYYCQQYHSYPRTFGGGTKLEIK	1.7 OD450
